Where no end group is shown, it is not given here.
Molecular target: T1, MPERp (HIV-1 (HXBc2 isolate), C-terminal carboxamide)
T1 construct: also called MPER peptide
Assay: cross-linking; peptides (10 µg) in solution incubated with 20 µM BS3 for 1 h at 37°C, TCA precipitation, Tricine SDS-PAGE; detection by Western blot with MAb2F5 or by NBD fluorescence in the gel
Details: both partners purified

T1 sequence (P03375 656-683): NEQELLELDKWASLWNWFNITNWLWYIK

B1: FPp (peptide)
peptide: AVGIGALFLGFLGAAGSTMGARSKKK-NH2
notes: HIV-1 gp160 (gp41 amino-terminal fusion peptide), HXBc2 isolate, residues 512-534; three lysines added at the C-terminus, not of gp160 (printed as 512-534-KKK); C-terminal KKK is added to the natural stretch; also called FP peptide; fusion peptide; source: synthetic peptide (solid-phase synthesis, Fmoc chemistry; purified by HPLC)
Question: Does B1 bind?
Answer: Result: binds
